Assay results reported in patent publication US20090035321A1, “Intercellular adhesion molecules and their binding ligands” (Boehringer Ingelheim Pharmaceuticals, Inc., published 2009).

How the values were obtained:
Assay in all cases: 35S-HRV14 on COS cells
[1] = target: ICAM-1 Q73/T (human, UniProt P05362)
Experimental: (§1) COS cells were seeded into 10 cm tissue culture plates such that they would be 50% confluent by 16-24 hrs. COS cells were then washed once with TBS and incubated for 4 hrs with 4 ml RPMI containing 10% Nu sera (Collaborative) 5 pg/ml chloroquine, 3 μg of mutant plasmid and 200 μg/ml DEAE-dextran sulfate. Cells were then washed with 10% DMSO/PBS followed by PBS and cultured 16 hrs in culture media. Culture media was replaced with fresh media and at 48 hrs post transfection (OS cells were suspended by trypsin/EDTA (Gibco) treatment and divided into 2, 10 cm plates as well as 24 well tissue culture plates for HRV binding. At 72 hrs cells were harvested from 10 cm plates with 5 mM EDTA/HBSS and processed for adhesion to LFA-1 coated plastic and immunofluorescence.
(§2) Binding occurred in 1 hr at 35° C. in a 5% CO₂ atmosphere with horizontal rotation (100 rpm). Unbound [³⁵S] HRV14 was aspirated, COS cells were gently washed with 150 ml of HRV buffer and then solubilized with 1% SDS in PBS for scintillation counting.
(§3) In Table 25, the notation for the mutations uses the one-letter code for the wild-type sequence followed by a slash and the one-letter code for the corresponding mutant sequence. The position of the first amino acid within the sequence is indicated. Wild type residues precede the slash followed by the residues they were substituted for in the mutant. COS cells expressing ICAM-1 mutants were tested for adherence to LFA-1 coated plastic and for binding 35S met-labeled HRV14. […] Binding is presented as mean and standard error (SE) for multiple experiments (n). […] The specific linear fluorescence intensity (SLFI) of CL203 for each mutant is normalized to that of wild type CL203 SLFI (% WT) as discussed above. The SLFI of RR1/1, R6.5 and LB-2 SLFI is normalized to the CL203 SLFI of the mutant (% CL203) as described above.

[2] = target: ICAM-1 R166PQ/EPA (human, UniProt P05362)
Experimental: as §1, §2, §3

[3] = target: ICAM-1 N175/A (human, UniProt P05362)
Experimental: as §1, §2, §3

[4] = target: ICAM-1 E34/A (human, UniProt P05362)
Experimental: as §1, §2, §3

[5] = target: ICAM-1 D71GQS/NGEL (human, UniProt P05362)
Experimental: as §1, §2, §3

[6] = target: ICAM-1 R49KV/EKL (human, UniProt P05362)
Experimental: as §1, §2, §3

[7] = target: ICAM-1 Y66/T (human, UniProt P05362)
Experimental: as §1, §2, §3

[8] = target: ICAM-1 K39KE/ERQ (human, UniProt P05362)
Experimental: as §1, §2, §3

[9] = target: ICAM-1 R88V/EA (human, UniProt P05362)
Experimental: as §1, §2, §3

[10] = target: ICAM-1 D60/Q (human, UniProt P05362)
Experimental: as §1, §2, §3

[11] = target: ICAM-1 Q1/K (human, UniProt P05362)
Experimental: as §1, §2, §3

[12] = target: ICAM-1 D229QR/HLE (human, UniProt P05362)
Experimental: as §1, §2, §3

[13] = target: ICAM-1 R125/E (human, UniProt P05362)
Experimental: as §1, §2, §3

[14] = target: ICAM-1 D60/K (human, UniProt P05362)
Experimental: as §1, §2, §3

[15] = target: ICAM-1 D203TQ/TAD (human, UniProt P05362)
Experimental: as §1, §2, §3

[16] = target: ICAM-1 E90/K (human, UniProt P05362)
Experimental: as §1, §2, §3

[17] = target: ICAM-1 Q1T/KA (human, UniProt P05362)
Experimental: as §1, §2, §3

[18] = target: ICAM-1 Q58EDS/AKDI (human, UniProt P05362)
Experimental: as §1, §2, §3

[19] = target: ICAM-1 K50V/EL (human, UniProt P05362)
Experimental: as §1, §2, §3

[20] = target: ICAM-1 R13/E (human, UniProt P05362)
Experimental: as §1, §2, §3

[21] = target: ICAM-1 Y52/F (human, UniProt P05362)
Experimental: as §1, §2, §3

[22] = target: ICAM-1 A189T/SI (human, UniProt P05362)
Experimental: as §1, §2, §3

[23] = target: ICAM-1 N240DS/KNA (human, UniProt P05362)
Experimental: as §1, §2, §3

[24] = target: ICAM-1 T75/A (human, UniProt P05362)
Experimental: as §1, §2, §3

[25] = target: ICAM-1 E59/K (human, UniProt P05362)
Experimental: as §1, §2, §3

[26] = target: ICAM-1 S24/A (human, UniProt P05362)
Experimental: as §1, §2, §3

[27] = target: ICAM-1 M64/I (human, UniProt P05362)
Experimental: as §1, §2, §3

[28] = target: ICAM-1 E90/Q (human, UniProt P05362)
Experimental: as §1, §2, §3

[29] = target: ICAM-1 D60S/KL (human, UniProt P05362)
Experimental: as §1, §2, §3

B1: human rhinovirus 14 (HRV14) (other)
chain: GAQVSTQKSGSHENQNILTNGSNQTFTVINYYKDAASTSSAGQSLSMDPSKFTEPVKDLMLKGAPALNSPNVEACGYSDRVQQITLGNSTITTQEAANAVVCYAEWPEYLPDVDASDVNKTSKPDTSVCRFYTLDSKTWTTGSKGWCWKLPDALKDMGVFGQNMFFHSLGRSGYTVHVQCNATKFHSGCLLVVVIPEHQLASHEGGNVSVKYTFTHPGERGIDLSSANEVGGPVKDVIYNMNGTLLGNLLIFPHQFINLRTNNTATIVIPYINSVPIDSMTRHNNVSLMVIPIAPLTVPTGATPSLPITVTIAPMCTEFSGIRSKSIVPQGLPTTTLPGSGQFLTTDDRQSPSALPNYEPTPRIHIPGKVHNLLEIIQVDTLIPMNNTHTKDEVNSYLIPLNANRQNEQVFGTNLFIGDGVFKTTLLGEIVQYYTHWSGSLRFSLMYTGPALSSAKLILAYTPPGARGPQDRREAMLGTHVVWDIGLQSTIVMTIPWTSGVQFRYTDPDTYTSAGFLSCWYQTSLILPPETTGQVYLLSFISACPDFKLRLMKDTQTISQTVALTEGLGDELEEVIVEKTKQTVASISSGPKHTQKVPILTANETGATMPVLPSDSIETRTTYMHFNGSETDVECFLGRAACVHVTEIQNKDATGIDNHREAKLFNDWKINLSSLVQLRKKLELFTYVRFDSEYTILATASQPDSANYSSNLVVQAMYVPPGAPNPKEWDDYTWQSASNPSVFFKVGDTSRFSVPYVGLASAYNCFYDGYSHDDAETQYGITVLNHMGSMAFRIVNEHDEHKTLVKIRVYHRAKHVEAWIPRAPRALPYTSIGRTNYPKNTEPVIKKRKGDIKSY
modifications: [35S]-Met labeled
[1]
  HRV Binding %: 133 % of wild type
[2]
  HRV Binding %: 25 % of wild type
[3]
  HRV Binding %: 129 % of wild type
[4]
  HRV Binding %: 66 % of wild type
[5]
  HRV Binding %: 21 % of wild type
[6]
  HRV Binding %: 49 % of wild type
[7]
  HRV Binding %: 204 % of wild type
[8]
  HRV Binding %: 61 % of wild type
[9]
  HRV Binding %: 152 % of wild type
[10]
  HRV Binding %: 20 % of wild type
[11]
  HRV Binding %: 78 % of wild type
[12]
  HRV Binding %: 106 % of wild type
[13]
  HRV Binding %: 157 % of wild type
[14]
  HRV Binding %: 4 % of wild type
[15]
  HRV Binding %: 111 % of wild type
[16]
  HRV Binding %: 50 % of wild type
[17]
  HRV Binding %: 11 % of wild type
[18]
  HRV Binding %: 0 % of wild type
[19]
  HRV Binding %: 10 % of wild type
[20]
  HRV Binding %: 10 % of wild type
[21]
  HRV Binding %: 174 % of wild type
[22]
  HRV Binding %: 168 % of wild type
[23]
  HRV Binding %: 82 % of wild type
[24]
  HRV Binding %: 119 % of wild type
[25]
  HRV Binding %: 105 % of wild type
[26]
  HRV Binding %: 99 % of wild type
[27]
  HRV Binding %: 107 % of wild type
[28]
  HRV Binding %: 157 % of wild type
[29]
  HRV Binding %: 1 % of wild type
